From paper PMC4764553, “Human cytomegalovirus IE1 protein alters the higher-order chromatin structure by targeting the acidic patch of the nucleosome” (eLife, 2016)
Read-outs that look alike come from different tables or passages of the source.

How the values were obtained:
Experiment in all cases: ITC
[1] = tested on: IE1 full length;human histone octamer WT (human cytomegalovirus (Towne);Homo sapiens)
[2] = tested on: IE1-CTD (chromatin-tethering domain peptide);human histone octamer WT (human cytomegalovirus;Homo sapiens)
[3] = tested on: IE1-CTD (chromatin-tethering domain peptide);human histone octamer WT (human cytomegalovirus;Homo sapiens); remark: listed apart in the source

## 147-bp Widom 601 (human NCP)
[1]
  Kd: 11300 nM
[2]
  Kd: 400 nM
[3]
  Kd: 2250 nM
